Reference: PMC3310397

Legend:
[1] = target: G-CSF receptor on NFS-60 cells (mouse (endogenous in NFS-60)) (UniProt P40223); assay: radioligand binding
[2] = target: Tf receptor on Caco-2 cells (human (endogenous in Caco-2)) (UniProt P02786); assay: radioligand binding
Sequence of UniProt P02786 (P02786 whole entry): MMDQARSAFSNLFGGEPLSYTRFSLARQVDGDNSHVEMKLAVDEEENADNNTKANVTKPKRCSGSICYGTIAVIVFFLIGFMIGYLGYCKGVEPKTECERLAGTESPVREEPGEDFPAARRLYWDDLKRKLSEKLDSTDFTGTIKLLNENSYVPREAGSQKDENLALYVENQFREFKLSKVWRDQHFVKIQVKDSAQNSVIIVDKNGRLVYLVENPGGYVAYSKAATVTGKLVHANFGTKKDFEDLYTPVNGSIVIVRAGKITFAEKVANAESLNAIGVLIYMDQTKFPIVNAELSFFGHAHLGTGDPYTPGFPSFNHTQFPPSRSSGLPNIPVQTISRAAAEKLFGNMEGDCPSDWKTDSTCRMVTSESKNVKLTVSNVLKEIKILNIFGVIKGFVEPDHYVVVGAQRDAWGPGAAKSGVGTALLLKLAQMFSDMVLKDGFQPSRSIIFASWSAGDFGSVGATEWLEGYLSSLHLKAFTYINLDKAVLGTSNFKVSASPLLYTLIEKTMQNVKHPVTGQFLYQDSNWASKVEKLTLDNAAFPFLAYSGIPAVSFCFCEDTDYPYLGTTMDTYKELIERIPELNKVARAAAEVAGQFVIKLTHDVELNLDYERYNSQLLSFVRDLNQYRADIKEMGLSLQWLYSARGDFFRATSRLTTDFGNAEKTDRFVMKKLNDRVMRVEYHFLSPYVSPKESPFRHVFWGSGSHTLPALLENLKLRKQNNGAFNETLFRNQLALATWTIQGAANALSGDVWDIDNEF

Sequence of UniProt P40223 (P40223 26-837): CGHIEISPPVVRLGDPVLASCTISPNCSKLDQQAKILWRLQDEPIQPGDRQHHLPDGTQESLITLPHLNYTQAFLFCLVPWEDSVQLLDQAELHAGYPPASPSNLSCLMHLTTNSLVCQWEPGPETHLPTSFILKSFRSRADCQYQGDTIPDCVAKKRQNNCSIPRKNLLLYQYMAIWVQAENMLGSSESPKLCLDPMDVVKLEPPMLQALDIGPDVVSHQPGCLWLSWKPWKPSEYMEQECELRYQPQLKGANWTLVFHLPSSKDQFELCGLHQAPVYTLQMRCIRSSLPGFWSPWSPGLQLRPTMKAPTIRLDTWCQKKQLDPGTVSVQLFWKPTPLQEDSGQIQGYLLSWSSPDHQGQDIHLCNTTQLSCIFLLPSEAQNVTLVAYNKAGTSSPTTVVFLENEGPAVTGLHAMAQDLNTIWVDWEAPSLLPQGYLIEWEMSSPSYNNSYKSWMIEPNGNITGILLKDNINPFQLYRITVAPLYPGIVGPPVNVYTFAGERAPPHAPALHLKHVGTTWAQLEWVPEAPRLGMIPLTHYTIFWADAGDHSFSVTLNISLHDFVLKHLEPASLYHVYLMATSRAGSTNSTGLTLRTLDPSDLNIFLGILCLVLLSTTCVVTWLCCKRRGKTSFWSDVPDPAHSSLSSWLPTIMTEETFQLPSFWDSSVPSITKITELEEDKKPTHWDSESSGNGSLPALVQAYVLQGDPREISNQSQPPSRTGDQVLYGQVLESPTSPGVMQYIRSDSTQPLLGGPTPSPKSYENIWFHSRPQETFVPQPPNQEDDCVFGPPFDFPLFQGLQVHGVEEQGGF

| IC50 [1] [µM] | IC50 [2] [µM] | Substance |
| --- | --- | --- |
| 0.113 | – | recombinant human G-CSF, aglycosylated (Neupogen) (from UniProt P09919-2 31-204) (ligand) |
| – | 0.0212 | GH-LE-Tf fusion protein (dipeptide linker) |
| 0.038 | 0.0075 | G-CSF-LE-Tf fusion protein (dipeptide linker) |
